Measurements reported in patent US20260008815A1, “CYCLIC PEPTIDE OR SALT THEREOF, AND USES THEREOF” (FUJIFILM Corporation, priority 2023, published 2026).
Bridge positions count the residues as written; N and C are the ends. Ends that are not written are not given here. COCH2 = acetyl group that carries the bridge

Target: T1, Recombinant Human FGFR2 alpha (IIIc) Fc Chimera Protein, CF (R&D systems, 712-FR-050) (human, UniProt P21802 22-377)
T1 construct: bought; not shown: Fc part of the chimera
T1 sequence (P21802 22-377, change not shown): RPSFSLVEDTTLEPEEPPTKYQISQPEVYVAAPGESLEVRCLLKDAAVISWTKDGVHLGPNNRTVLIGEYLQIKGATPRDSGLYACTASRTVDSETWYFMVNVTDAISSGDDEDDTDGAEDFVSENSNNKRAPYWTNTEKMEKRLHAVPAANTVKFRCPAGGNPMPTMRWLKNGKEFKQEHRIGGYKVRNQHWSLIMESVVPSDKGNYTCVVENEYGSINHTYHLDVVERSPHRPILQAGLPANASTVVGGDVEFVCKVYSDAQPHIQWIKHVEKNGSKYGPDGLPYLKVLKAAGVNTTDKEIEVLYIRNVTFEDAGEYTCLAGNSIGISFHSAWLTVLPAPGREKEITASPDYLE
Assay: ELISA on plate-bound FGFR2-Fc
In short: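 Peptide binding scored by category from dose-response of background-corrected luminescence (FGFR-coated minus uncoated wells). Detection via anti-Myc antibody (2 h, room temperature) after 3 h peptide incubation on wells coated with 5 ng FGFR2 alpha (IIIc)-Fc.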

| ELISA luminescence signal at 10 nmol/L peptide, relative to SEQ ID NO: 47 (=1) [ratio] | Binder |
| --- | --- |
| ≥ 0.7 | YCEENYLDPEQYQYFEYFK(COCH2)Y (thioether 2-19 (inferred)) [cyclic peptide SEQ ID NO: 288] |
| ≥ 0.7 | YCEENYLDPEQYQYFIFFK(COCH2)Y (thioether 2-19 (inferred)) [cyclic peptide SEQ ID NO: 296] |
| ≥ 0.7 | YCEENYLDPEQYQYFINFK(COCH2)Y (thioether 2-19 (inferred)) [cyclic peptide SEQ ID NO: 298] |
| 0.1 to 0.5 | YCEENYLDPEQYQYFGYFK(COCH2)Y (thioether 2-19 (inferred)) [cyclic peptide SEQ ID NO: 277] |
| ≥ 0.7 | YCEENYLDPEQYQYFIDFK(COCH2)Y (thioether 2-19 (inferred)) [cyclic peptide SEQ ID NO: 302] |
| ≥ 0.7 | YCEENYLDPEQYQYFWYFK(COCH2)Y (thioether 2-19 (inferred)) [cyclic peptide SEQ ID NO: 282] |
| ≥ 0.7 | YCEENYLDPEQYQYFRYFK(COCH2)Y (thioether 2-19 (inferred)) [cyclic peptide SEQ ID NO: 289] |
| ≥ 0.7 | YCEENYLDPEQYQYFITFK(COCH2)Y (thioether 2-19 (inferred)) [cyclic peptide SEQ ID NO: 301] |
| ≥ 0.7 | YCEENYLDPEQYQYFILFK(COCH2)Y (thioether 2-19 (inferred)) [cyclic peptide SEQ ID NO: 293] |
| ≥ 0.7 | YCEENYLDPEQYQYFNYFK(COCH2)Y (thioether 2-19 (inferred)) [cyclic peptide SEQ ID NO: 283] |
| ≥ 0.7 | YCEENYLDPEQYQYFISFK(COCH2)Y (thioether 2-19 (inferred)) [cyclic peptide SEQ ID NO: 300] |
| ≥ 0.7 | YCEENYLDPEQYQYFHYFK(COCH2)Y (thioether 2-19 (inferred)) [cyclic peptide SEQ ID NO: 290] |
| ≥ 0.7 | YCEENYLDPEQYQYFVYFK(COCH2)Y (thioether 2-19 (inferred)) [cyclic peptide SEQ ID NO: 279] |
| ≥ 0.7 | YCEENYLDPEQYQYFSYFK(COCH2)Y (thioether 2-19 (inferred)) [cyclic peptide SEQ ID NO: 285] |
| 0.1 to 0.5 | YCEENYLDPEQYQYFIPFK(COCH2)Y (thioether 2-19 (inferred)) [cyclic peptide SEQ ID NO: 292] |
| ≥ 0.7 | YCEENYLDPEQYQYFIWFK(COCH2)Y (thioether 2-19 (inferred)) [cyclic peptide SEQ ID NO: 297] |
| ≥ 0.7 | YCEENYLDPEQYQYFFYFK(COCH2)Y (thioether 2-19 (inferred)) [cyclic peptide SEQ ID NO: 280] |
| ≥ 0.7 | YCEENYLDPEQYQYFYYFK(COCH2)Y (thioether 2-19 (inferred)) [cyclic peptide SEQ ID NO: 281] |
| ≥ 0.7 | YCEENYLDPEQYQYFTYFK(COCH2)Y (thioether 2-19 (inferred)) [cyclic peptide SEQ ID NO: 286] |
| ≥ 0.7 | YCEENYLDPEQYQYFQYFK(COCH2)Y (thioether 2-19 (inferred)) [cyclic peptide SEQ ID NO: 284] |
| ≥ 0.7 | YCEENYLDPEQYQYFIQFK(COCH2)Y (thioether 2-19 (inferred)) [cyclic peptide SEQ ID NO: 299] |
| ≥ 0.7 | YCEENYLDPEQYQYFIVFK(COCH2)Y (thioether 2-19 (inferred)) [cyclic peptide SEQ ID NO: 295] |
| 0.5 to 0.7 | YCEENYLDPEQYQYFIIFK(COCH2)Y (thioether 2-19 (inferred)) [cyclic peptide SEQ ID NO: 294] |
| ≥ 0.7 | YCEENYLDPEQYQYFDYFK(COCH2)Y (thioether 2-19 (inferred)) [cyclic peptide SEQ ID NO: 287] |
| 0.5 to 0.7 | YCEENYLDPEQYQYFIGFK(COCH2)Y (thioether 2-19 (inferred)) [cyclic peptide SEQ ID NO: 291] |
| ≥ 0.7 | YCEENYLDPEQYQYFLYFK(COCH2)Y (thioether 2-19 (inferred)) [cyclic peptide SEQ ID NO: 278] |

Continued, binder first:

| Binder | ELISA luminescence signal at 10 nmol/L peptide, relative to SEQ ID NO: 47 (=1) [ratio] |
| --- | --- |
| YCEENYLDPEQYIYFIYFK(COCH2)Y (thioether 2-19 (inferred)) [cyclic peptide SEQ ID NO: 259] | ≥ 0.7 |
| YCEENYLDPEQYDYFIYFK(COCH2)Y (thioether 2-19 (inferred)) [cyclic peptide SEQ ID NO: 267] | ≥ 0.7 |
| YCEENYLDPEQYRYFIYFK(COCH2)Y (thioether 2-19 (inferred)) [cyclic peptide SEQ ID NO: 269] | ≥ 0.7 |
| YCEENYLDPEQYWYFIYFK(COCH2)Y (thioether 2-19 (inferred)) [cyclic peptide SEQ ID NO: 263] | ≥ 0.7 |
| YCEENYLDPEQYEYFIYFK(COCH2)Y (thioether 2-19 (inferred)) [cyclic peptide SEQ ID NO: 268] | ≥ 0.7 |
| YCEENYLDPEQYQFFIYFK(COCH2)Y (thioether 2-19 (inferred)) [cyclic peptide SEQ ID NO: 272] | ≥ 0.7 |
| YCEENYLDPEQYQYLIYFK(COCH2)Y (thioether 2-19 (inferred)) [cyclic peptide SEQ ID NO: 275] | ≥ 0.7 |
| YCEENYLDPEQYQIFIYFK(COCH2)Y (thioether 2-19 (inferred)) [cyclic peptide SEQ ID NO: 271] | 0.1 to 0.5 |
| YCEENYLDPEQYSYFIYFK(COCH2)Y (thioether 2-19 (inferred)) [cyclic peptide SEQ ID NO: 265] | ≥ 0.7 |
| YCEENYLDPEQYQHFIYFK(COCH2)Y (thioether 2-19 (inferred)) [cyclic peptide SEQ ID NO: 274] | 0.1 to 0.5 |
| YCEENYLDPEQYTYFIYFK(COCH2)Y (thioether 2-19 (inferred)) [cyclic peptide SEQ ID NO: 266] | ≥ 0.7 |
| YCEENYLDPEQYHYFIYFK(COCH2)Y (thioether 2-19 (inferred)) [cyclic peptide SEQ ID NO: 270] | ≥ 0.7 |
| YCEENYLDPEQYFYFIYFK(COCH2)Y (thioether 2-19 (inferred)) [cyclic peptide SEQ ID NO: 261] | 0.5 to 0.7 |
| YCEENYLDPEQYYYFIYFK(COCH2)Y (thioether 2-19 (inferred)) [cyclic peptide SEQ ID NO: 262] | ≥ 0.7 |
| YCEENYLDPEQYVYFIYFK(COCH2)Y (thioether 2-19 (inferred)) [cyclic peptide SEQ ID NO: 260] | ≥ 0.7 |
| YCEENYLDPEQYNYFIYFK(COCH2)Y (thioether 2-19 (inferred)) [cyclic peptide SEQ ID NO: 264] | ≥ 0.7 |
| YCEENYLDPEQYQNFIYFK(COCH2)Y (thioether 2-19 (inferred)) [cyclic peptide SEQ ID NO: 273] | 0.1 to 0.5 |
| YCEENYLDPEQYQYYIYFK(COCH2)Y (thioether 2-19 (inferred)) [cyclic peptide SEQ ID NO: 276] | 0.5 to 0.7 |
